{"source": "paper PMC11848091", "about": "(Heliyon, 2025)", "binders": {"B1": {"name": "Mouse TNF (ligand)", "chain": "LRSSSQNSSDKPVAHVVANHQVEEQLEWLSQRANALLANGMDLKDNQLVVPADGLYLVYSQVLFKGQGCPDYVLLTHTVSRFAISYQEKVNLLSAVKSPCPKDTPEGAELKPWYEPIYLGGVFQLEKGDQLSAEVNLPKYLDFAESGQVYFGVIAL"}}, "experiment_in_all_cases": "SPR", "key": {"Mouse TNFR1": {"molecular_target": "T1, Mouse TNFR1 (mouse, UniProt P25118)", "T1 sequence": "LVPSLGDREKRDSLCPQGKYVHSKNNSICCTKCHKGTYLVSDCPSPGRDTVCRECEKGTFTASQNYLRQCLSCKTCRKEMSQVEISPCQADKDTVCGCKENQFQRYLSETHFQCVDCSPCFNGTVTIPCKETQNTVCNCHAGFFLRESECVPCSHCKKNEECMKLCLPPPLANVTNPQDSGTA"}, "Human CD163": {"molecular_target": "Human CD163 (human, UniProt Q86VB7)", "sequence (Q86VB7 42-1050)": "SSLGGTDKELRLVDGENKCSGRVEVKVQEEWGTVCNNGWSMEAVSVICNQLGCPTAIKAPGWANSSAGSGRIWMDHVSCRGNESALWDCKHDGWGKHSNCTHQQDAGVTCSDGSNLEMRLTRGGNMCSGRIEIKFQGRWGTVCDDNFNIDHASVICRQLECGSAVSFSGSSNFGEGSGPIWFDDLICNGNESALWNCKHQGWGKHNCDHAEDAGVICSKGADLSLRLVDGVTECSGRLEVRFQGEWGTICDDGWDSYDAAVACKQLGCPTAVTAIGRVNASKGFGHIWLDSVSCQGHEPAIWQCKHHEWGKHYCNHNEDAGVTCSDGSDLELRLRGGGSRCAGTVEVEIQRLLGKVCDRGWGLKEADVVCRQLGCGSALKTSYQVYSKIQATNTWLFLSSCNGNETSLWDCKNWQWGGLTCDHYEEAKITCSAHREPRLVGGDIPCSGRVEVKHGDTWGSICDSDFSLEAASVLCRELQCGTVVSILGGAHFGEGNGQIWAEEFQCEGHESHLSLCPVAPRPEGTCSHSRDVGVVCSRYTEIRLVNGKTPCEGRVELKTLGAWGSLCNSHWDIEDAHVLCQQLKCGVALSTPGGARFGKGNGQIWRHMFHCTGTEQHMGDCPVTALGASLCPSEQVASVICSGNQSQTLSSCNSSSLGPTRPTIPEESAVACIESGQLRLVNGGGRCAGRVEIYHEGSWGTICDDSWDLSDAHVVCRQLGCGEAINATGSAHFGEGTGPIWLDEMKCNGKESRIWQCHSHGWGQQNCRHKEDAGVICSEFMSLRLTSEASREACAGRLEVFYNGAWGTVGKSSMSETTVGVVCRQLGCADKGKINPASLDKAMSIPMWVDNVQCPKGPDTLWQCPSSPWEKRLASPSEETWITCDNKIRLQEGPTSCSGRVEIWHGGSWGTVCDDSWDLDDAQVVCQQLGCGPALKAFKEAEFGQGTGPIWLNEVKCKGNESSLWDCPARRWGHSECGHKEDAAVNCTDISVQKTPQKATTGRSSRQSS"}, "Mouse CD163": {"molecular_target": "Mouse CD163 (mouse, UniProt Q2VLH6)", "sequence (Q2VLH6 39-1045)": "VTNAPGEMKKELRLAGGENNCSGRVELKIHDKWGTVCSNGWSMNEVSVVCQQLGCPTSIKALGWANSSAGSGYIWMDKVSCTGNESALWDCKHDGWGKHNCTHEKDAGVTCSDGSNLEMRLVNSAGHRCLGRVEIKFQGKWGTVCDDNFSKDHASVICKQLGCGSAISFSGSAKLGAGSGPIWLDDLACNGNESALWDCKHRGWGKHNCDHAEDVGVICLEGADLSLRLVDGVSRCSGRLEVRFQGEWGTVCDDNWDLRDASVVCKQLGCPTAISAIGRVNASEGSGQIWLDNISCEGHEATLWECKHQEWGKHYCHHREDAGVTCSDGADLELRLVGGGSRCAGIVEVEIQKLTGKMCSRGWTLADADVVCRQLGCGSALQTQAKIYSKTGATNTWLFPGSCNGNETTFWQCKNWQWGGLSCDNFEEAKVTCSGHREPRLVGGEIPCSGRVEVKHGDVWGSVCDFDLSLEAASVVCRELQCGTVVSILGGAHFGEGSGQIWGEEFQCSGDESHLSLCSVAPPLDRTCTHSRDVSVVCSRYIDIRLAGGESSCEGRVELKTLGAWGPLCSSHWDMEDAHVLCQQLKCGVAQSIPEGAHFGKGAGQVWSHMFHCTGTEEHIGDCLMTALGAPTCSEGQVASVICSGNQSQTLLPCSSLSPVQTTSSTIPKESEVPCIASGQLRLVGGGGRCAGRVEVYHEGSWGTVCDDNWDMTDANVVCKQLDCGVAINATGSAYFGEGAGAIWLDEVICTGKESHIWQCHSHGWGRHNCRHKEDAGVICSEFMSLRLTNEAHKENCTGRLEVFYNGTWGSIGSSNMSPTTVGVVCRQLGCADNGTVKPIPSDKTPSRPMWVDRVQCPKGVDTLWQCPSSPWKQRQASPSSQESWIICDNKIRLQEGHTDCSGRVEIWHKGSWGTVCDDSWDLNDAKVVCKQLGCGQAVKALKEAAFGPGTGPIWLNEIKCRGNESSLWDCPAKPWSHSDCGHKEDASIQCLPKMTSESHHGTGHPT"}}, "data": [{"binder": "B1", "values": [{"measurement": "Kd", "setting": "Mouse TNFR1", "value": 69.6, "unit": "nM"}, {"measurement": "koff", "setting": "Mouse TNFR1", "value": 0.000379, "unit": "s⁻¹"}, {"measurement": "kon", "setting": "Mouse TNFR1", "value": 5450, "unit": "M⁻¹ s⁻¹"}, {"measurement": "Kd", "setting": "Human CD163", "value": 1.93, "unit": "nM"}, {"measurement": "koff", "setting": "Human CD163", "value": 0.000151, "unit": "s⁻¹"}, {"measurement": "kon", "setting": "Human CD163", "value": 78500, "unit": "M⁻¹ s⁻¹"}, {"measurement": "Kd", "setting": "Mouse CD163", "value": 0.093, "unit": "nM"}, {"measurement": "koff", "setting": "Mouse CD163", "value": 0.000232, "unit": "s⁻¹"}, {"measurement": "kon", "setting": "Mouse CD163", "value": "2.5e+06", "unit": "M⁻¹ s⁻¹"}]}]}
